This note sets out measurements from US8114974B2, “Engineered microorganisms with enhanced fermentation activity” (Verdezyne, Inc., priority 2009, dated 2012).

“And” between values parts separate entries of the source, which are not always exact repeats. Equal entries are not always repeated.

In one series the test system is C5 strain. Description: In vivo evaluation of xylose isomerase constructs in C5 strain, fermentation on xylose. The settings on record: final sample at 372 hours. It counts as cell-based, Saccharomyces cerevisiae. An excerpt: The engineered strain was designed to include the following genetic modifications: the native Pho13 gene (alkaline phosphatase specific for p-nitrophenyl phosphate) was disrupted by inserting a construct containing the native TLK1 gene (Transketolase-1); the native aldose reductase gene (Gre3) was disrupted by inserting a construct containing the native high-affinity glucose transporter-7 gene (HXT7); the native glucose-repressible alcohol dehydrogenase II gene (adh2) was disrupted by inserting a construct containing the native xylulokinase gene (XYLK); and the native orotidine-5′ phosphate decarboxylase gene (ura3) was disrupted by inserting a construct containing the native transaldolase 1 gene (TAL1). The resulting strain had the following genotype: pho13::TKL1, gre3::HXT7, adh2::XYLK, ura3::TAL1.
The C5 strain was transformed using standard protocols with either p426GPD (as a control) or the chimeric variants XI-R, XI-Rp5, XI-Rp10, or XI-Rp15. The transformed cells were grown on SC-glucose minus uracil initially and then passaged onto SC-xylose minus uracil. Cultures of each of the above constructs were made in SC-xylose minus uracil—and grown for one week. The cultures were grown aerobically at 30° C. with 250 rpm agitation, 1 vvm sparge of process air, 21% O2. The pH was controlled at about 5.0 with 1N NaOH. […] At 24 hours elapsed fermentation time the fermentation was switched to anaerobic conditions.
Oxygen was purged with 100% N2 sparge at 1 vvm until percent O2 was below 1%. Aeration was then set at 0.25 vvm 100% N2.
The final sample also measured biomass by dry cell weight.

The subject of series [1] is xylose isomerase. Description: In vitro xylose isomerase activity assay (sorbitol dehydrogenase/NADH coupled, A340; Km, specific activity, Ki for xylitol). It counts as biochemical, Saccharomyces cerevisiae.
Experimental: About 20 μg of soluble whole cell extract was incubated in the presence of 100 mM Tris, pH 7.5, 10 mM MgCl2, 0.15 mM NADH (Sigma, St. Louis, Mo.), and about 2 U sorbitol dehydrogenase (Roche) at about 30° C. […] A Beckman DU-800 was utilized with an Enzyme Mechanism software package (Beckman Coulter, Inc.), and the change in the A340 was monitored for 2-3 minutes.
Approximately 20 μg of soluble whole cell extract from each transformed cell line, prepared using Y-PER plus reagent as described above, was incubated in a solution containing about 100 mM Tris, pH 7.5, 10 mM MgCl ? 2, 0.15 mM NADH (Sigma, St. Louis, Mo.), and 2 U Sorbitol Dehydrogenase (SDH) (Roche, Indianapolis, Ind.) at about 30° C. […] A Beckman DU-800 spectrophotometer was utilized with an Enzyme Mechanism software package (Beckman Coulter, Inc, Brea, Calif.), and the change in the A340 was monitored for 2-3 minutes.
Approximately 20 μg of soluble whole cell extract from each transformed cell line was prepared using Y-PER plus reagent as described above was incubated in a solution containing about 100 mM Tris, pH 7.5, 10 mM MgCl2, 0.15 mM NADH (Sigma, St. Louis, Mo.), and 2 U sorbitol dehydrogenase (SDH) (Roche, Indianapolis, Ind.) at about 30° C. […] A Beckman DU-800 spectrophotometer was utilized with an Enzyme Mechanism software package (Beckman Coulter, Inc, Brea, Calif.), and the change in the A340 was monitored for 2-3 minutes.
Approximately 20 μg of soluble whole cell extract from each transformed cell line was prepared using Y-PER plus reagent as described above was incubated in a solution containing about 100 mM Tris, pH 7.5, 10 mM MgCl ? .2, 0.15 mM NADH (Sigma, St. Louis, Mo.), and 2 U Sorbitol Dehydrogenase (SDH) (Roche, Indianapolis, Ind.) at about 30° C. […] A Beckman DU-800 spectrophotometer was utilized with an Enzyme Mechanism software package (Beckman Coulter, Inc, Brea, Calif.), and the change in the A340 was monitored for 2-3 minutes.
The Clostridiales enzyme was further characterized at 1974 μg to confirm the presence of activity.
In series [2] the test system is xylose isomerase. Description: Heterologous xylose isomerase expression in yeast (active yes/no). It counts as cell-based, Saccharomyces cerevisiae. The settings on record: xylose isomerase of the donor organism expressed in engineered yeast (S. cerevisiae).

B1: Ruminococcus flavefaciens: native xylose isomerase from Ruminococcus flavefaciens strain 17 (SEQ ID NO: 31) (protein, listed as Ruminococcus flavefaciens)
chain: MEFFSNIGKIQYQGPKSTDPLSFKYYNPEEVINGKTMREHLKFALSWWHTMGGDGTDMFGCGTTDKTWGQSDPAARAKAKVDAAFEIMDKLSIDYYCFHDRDLSPEYGSLKATNDQLDIVTDYIKEKQGDKFKCLWGTAKCFDHPRFMHGAGTSPSADVFAFSAAQIKKALESTVKLGGNGYVFWGGREGYETLLNTNMGLELDNMARLMKMAVEYGRSIGFKGDFYIEPKPKEPTKHQYDFDTATVLGFLRKYGLDKDFKMNIEANHATLAQHTFQHELRVARDNGVFGSIDANQGDVLLGWDTDQFPTNIYDTTMCMYEVIKAGGFTNGGLNFDAKARRGSFTPEDIFYSYIAGMDAFALGFRAALKLIEDGRIDKFVADRYASWNTGIGADIIAGKADFASLEKYALEKGEVTASLSSGRQEMLESIVNNVLFSL
In turn, B1 registered a Glucose in the series with C5 strain of 0 g/L. In addition, in the series with C5 strain (listed as XI-R), the “Dry Cell Wt” value was 2.20 g/L and 2.03 g/L; the Ethanol is 15.65 g/L and 15.5 g/L; the Xylose was 3.14 g/L and 3.85 g/L. The “Specific Activity” value in the series on xylose isomerase [1] (soluble whole cell extract, xylose 40-500 mM, 30° C., pH 7.5) came to 1.718 µmol/min/mg. Further, the “Specific Activity” value in the series on xylose isomerase [1] (total soluble crude extracts from S. cerevisiae, xylose concentrations between 40 and 500 nM (so in the source), Michaelis Mentin plots) was 0.9605 µmol/min/mg. Also, the “Active? (yes/no)” value with xylose isomerase [2] is listed as “Yes”.
